Laboratory results as given in the supplement of paper PMC10567573.

B1: MIA2 (parent)
chain: SVIEPVQESSFRSRKIAVEDENDL

Variants of: B1
Experiment: protein stability index of a GFP-peptide fusion (GPS, HEK-293T) (PSI 1-6); higher = more stable
Settings: c terminus: a fixed tail appended
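Also: lentivirally expressed fusions sorted by FACS into six bins by GFP to DsRed ratio, PSI derived from sequencing read proportions per bin multiplied by bin number.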

| Variant | protein stability index |
| --- | --- |
| SVIPPVQESSFRSRKIAVEDENDL | 5.37 |
| SVIFPVQESSFRSRKIAVEDENDL | 4.73 |
| SVIGPVQESSFRSRKIAVEDENDL | 5.01 |
| SVITPVQESSFRSRKIAVEDENDL | 5.35 |
| SVIHPVQESSFRSRKIAVEDENDL | 4.44 |
| SVIVPVQESSFRSRKIAVEDENDL | 4.71 |
| SVICPVQESSFRSRKIAVEDENDL | 5.08 |
| SVIIPVQESSFRSRKIAVEDENDL | 4.62 |
| SVIKPVQESSFRSRKIAVEDENDL | 5.03 |
| SVINPVQESSFRSRKIAVEDENDL | 5.21 |
| SVIRPVQESSFRSRKIAVEDENDL | 5 |
| YVIEPVQESSFRSRKIAVEDENDL | 3.12 |
| MVIEPVQESSFRSRKIAVEDENDL | 4.71 |
| QVIEPVQESSFRSRKIAVEDENDL | 5.39 |
| LVIEPVQESSFRSRKIAVEDENDL | 4.33 |
| HVIEPVQESSFRSRKIAVEDENDL | 5.52 |
| VVIEPVQESSFRSRKIAVEDENDL | 4.33 |
| FVIEPVQESSFRSRKIAVEDENDL | 2.93 |
| KVIEPVQESSFRSRKIAVEDENDL | 5.13 |
| EVIEPVQESSFRSRKIAVEDENDL | 5.28 |
| CVIEPVQESSFRSRKIAVEDENDL | 5.53 |
| GVIEPVQESSFRSRKIAVEDENDL | 5.17 |
| DVIEPVQESSFRSRKIAVEDENDL | 5.68 |
| NVIEPVQESSFRSRKIAVEDENDL | 5.69 |

| Variant | protein stability index |
| --- | --- |
| PVIEPVQESSFRSRKIAVEDENDL | 5.59 |
| IVIEPVQESSFRSRKIAVEDENDL | 3.96 |
| AVIEPVQESSFRSRKIAVEDENDL | 5.01 |
| TVIEPVQESSFRSRKIAVEDENDL | 5.45 |
| RVIEPVQESSFRSRKIAVEDENDL | 5.32 |
| WVIEPVQESSFRSRKIAVEDENDL | 4.46 |
| SPIEPVQESSFRSRKIAVEDENDL | 5.15 |
| SAIEPVQESSFRSRKIAVEDENDL | 5.31 |
| SNIEPVQESSFRSRKIAVEDENDL | 5.87 |
| SQIEPVQESSFRSRKIAVEDENDL | 5.82 |
| STIEPVQESSFRSRKIAVEDENDL | 5.31 |
| SDIEPVQESSFRSRKIAVEDENDL | 5.83 |
| SLIEPVQESSFRSRKIAVEDENDL | 5.24 |
| SSIEPVQESSFRSRKIAVEDENDL | 5.32 |
| SKIEPVQESSFRSRKIAVEDENDL | 5.38 |
| SRIEPVQESSFRSRKIAVEDENDL | 5.5 |
| SCIEPVQESSFRSRKIAVEDENDL | 5.76 |
| SMIEPVQESSFRSRKIAVEDENDL | 5.22 |
| SEIEPVQESSFRSRKIAVEDENDL | 5.22 |
| SFIEPVQESSFRSRKIAVEDENDL | 4.42 |
| SYIEPVQESSFRSRKIAVEDENDL | 5.26 |
| SGIEPVQESSFRSRKIAVEDENDL | 5.67 |
| SIIEPVQESSFRSRKIAVEDENDL | 4.69 |
| SWIEPVQESSFRSRKIAVEDENDL | 5.14 |

| Variant | protein stability index |
| --- | --- |
| SHIEPVQESSFRSRKIAVEDENDL | 5.51 |
| SVIEVVQESSFRSRKIAVEDENDL | 4.95 |
| SVIEDVQESSFRSRKIAVEDENDL | 4.88 |
| SVIEWVQESSFRSRKIAVEDENDL | 3.49 |
| SVIESVQESSFRSRKIAVEDENDL | 5.03 |
| SVIEEVQESSFRSRKIAVEDENDL | 4.79 |
| SVIEQVQESSFRSRKIAVEDENDL | 5.26 |
| SVIEFVQESSFRSRKIAVEDENDL | 3.31 |
| SVIECVQESSFRSRKIAVEDENDL | 4.74 |
| SVIEGVQESSFRSRKIAVEDENDL | 4.65 |
| SVIEHVQESSFRSRKIAVEDENDL | 4.98 |
| SVIELVQESSFRSRKIAVEDENDL | 3.56 |
| SVIEAVQESSFRSRKIAVEDENDL | 4.3 |
| SVIEMVQESSFRSRKIAVEDENDL | 4.14 |
| SVIETVQESSFRSRKIAVEDENDL | 5.3 |
| SVIEKVQESSFRSRKIAVEDENDL | 4.38 |
| SVIEIVQESSFRSRKIAVEDENDL | 3.56 |
| SVIENVQESSFRSRKIAVEDENDL | 5.01 |
| SVIERVQESSFRSRKIAVEDENDL | 5.13 |
| SVIEYVQESSFRSRKIAVEDENDL | 3.78 |
| SVDEPVQESSFRSRKIAVEDENDL | 5.9 |
| SVCEPVQESSFRSRKIAVEDENDL | 5.5 |
| SVKEPVQESSFRSRKIAVEDENDL | 4.92 |
| SVSEPVQESSFRSRKIAVEDENDL | 4.84 |

| Variant | protein stability index |
| --- | --- |
| SVGEPVQESSFRSRKIAVEDENDL | 5.73 |
| SVFEPVQESSFRSRKIAVEDENDL | 5.32 |
| SVNEPVQESSFRSRKIAVEDENDL | 5.61 |
| SVQEPVQESSFRSRKIAVEDENDL | 4.57 |
| SVHEPVQESSFRSRKIAVEDENDL | 4.67 |
| SVYEPVQESSFRSRKIAVEDENDL | 5.42 |
| SVVEPVQESSFRSRKIAVEDENDL | 5.62 |
| SVLEPVQESSFRSRKIAVEDENDL | 5.59 |
| SVTEPVQESSFRSRKIAVEDENDL | 5.6 |
| SVEEPVQESSFRSRKIAVEDENDL | 5.61 |
| SVREPVQESSFRSRKIAVEDENDL | 5.59 |
| SVPEPVQESSFRSRKIAVEDENDL | 5.13 |
| SVWEPVQESSFRSRKIAVEDENDL | 5.13 |
| SVMEPVQESSFRSRKIAVEDENDL | 5.44 |
| SVAEPVQESSFRSRKIAVEDENDL | 5.71 |
| SVIEPGQESSFRSRKIAVEDENDL | 5.75 |
| SVIEPCQESSFRSRKIAVEDENDL | 5.66 |
| SVIEPAQESSFRSRKIAVEDENDL | 5.31 |
| SVIEPHQESSFRSRKIAVEDENDL | 5.48 |
| SVIEPFQESSFRSRKIAVEDENDL | 4.94 |
| SVIEPDQESSFRSRKIAVEDENDL | 5.65 |
| SVIEPEQESSFRSRKIAVEDENDL | 5.76 |
